Chemotaxis IC50 (nM); L1.2 cells expressing hCCR5, 1 nM huRANTES; scFv format data for one molecule are collected here from patent publication US20120201826A1.

The target of the assay is recombinant human RANTES (huRANTES, Peprotech) (human) (UniProt P13501). Briefly: cell-based or functional assay.
recombinant human RANTES (huRANTES, Peprotech) (human), sequence (P13501 24-91): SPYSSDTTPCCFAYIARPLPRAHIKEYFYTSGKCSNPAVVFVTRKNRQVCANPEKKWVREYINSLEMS

B1: A5 scFv (scFv, part only; not given: linker and tags, part only)
scFv, part: QVQLVQSGAEVKKPGASVKVSCKVSGYALSELSIHWVRQAPGKGLEWMSYIDPEDGEPIYAQKFQGRATMTEDSSTDTAYMEMGSLTSDDTAVYYCAGVTGSTSDAFDLWGRGTLVTVSSSYVLTQDPSVSVAPGQTARITCGGANLWGLGVHWYQQKSGQAPVLVVSDNSDRASGIPERFSGSNSGTTATLTLSRVEVGDEADYYCQVWDSSSDHWVFGGRTKLTVL
Consider B1, for which the Chemotaxis IC50 (nM); L1.2 cells expressing hCCR5, 1 nM huRANTES; scFv format was 21 nM.
